In patent US20100041597A1 (published 2010):

T1: PKC-ζ (endogenous, human cell extracts) (human, UniProt Q05513 1-592)
T1 construct: also called PKC-zeta
T1 sequence (looked up): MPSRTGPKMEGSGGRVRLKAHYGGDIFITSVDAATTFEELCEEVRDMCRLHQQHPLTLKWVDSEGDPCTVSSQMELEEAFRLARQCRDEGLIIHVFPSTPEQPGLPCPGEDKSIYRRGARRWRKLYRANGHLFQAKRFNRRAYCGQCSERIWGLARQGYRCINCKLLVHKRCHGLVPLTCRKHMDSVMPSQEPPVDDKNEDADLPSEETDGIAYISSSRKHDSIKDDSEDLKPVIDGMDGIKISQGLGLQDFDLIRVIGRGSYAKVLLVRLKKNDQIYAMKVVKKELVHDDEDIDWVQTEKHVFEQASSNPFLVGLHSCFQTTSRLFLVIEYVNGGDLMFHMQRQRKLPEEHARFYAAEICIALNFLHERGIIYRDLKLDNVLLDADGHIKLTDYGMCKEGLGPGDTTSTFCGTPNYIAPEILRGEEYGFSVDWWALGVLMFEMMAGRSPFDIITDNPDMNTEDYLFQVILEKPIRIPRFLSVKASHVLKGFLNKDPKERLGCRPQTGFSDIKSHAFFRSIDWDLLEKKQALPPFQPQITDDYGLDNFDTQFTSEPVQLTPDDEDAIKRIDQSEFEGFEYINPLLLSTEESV

T2: PKC-ι (endogenous, human cell extracts) (human, UniProt P41743 2-596)
T2 construct: also called PKC-iota
T2 sequence (looked up): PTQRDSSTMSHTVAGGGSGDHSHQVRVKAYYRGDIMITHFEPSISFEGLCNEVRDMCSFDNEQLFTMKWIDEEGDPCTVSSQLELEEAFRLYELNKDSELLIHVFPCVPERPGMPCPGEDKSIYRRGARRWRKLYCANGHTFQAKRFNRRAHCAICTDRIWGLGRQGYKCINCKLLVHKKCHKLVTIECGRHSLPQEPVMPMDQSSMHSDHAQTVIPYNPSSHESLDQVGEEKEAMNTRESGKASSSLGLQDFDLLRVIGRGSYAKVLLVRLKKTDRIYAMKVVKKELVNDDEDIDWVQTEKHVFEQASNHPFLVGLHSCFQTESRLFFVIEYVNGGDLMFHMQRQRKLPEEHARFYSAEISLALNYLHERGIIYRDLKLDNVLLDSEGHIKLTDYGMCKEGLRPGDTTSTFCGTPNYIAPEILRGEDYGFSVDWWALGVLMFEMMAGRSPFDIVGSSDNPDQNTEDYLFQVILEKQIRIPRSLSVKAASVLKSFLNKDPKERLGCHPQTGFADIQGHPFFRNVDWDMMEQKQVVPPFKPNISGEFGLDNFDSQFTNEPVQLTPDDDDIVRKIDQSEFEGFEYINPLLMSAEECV

T3: PKC-ε (endogenous, human cell extracts) (human, UniProt Q02156 1-737)
T3 construct: Two bands on the blot, said to be alternate splicing variants; also called PKC-epsilon; PKC-ε Band 1
T3 sequence (looked up): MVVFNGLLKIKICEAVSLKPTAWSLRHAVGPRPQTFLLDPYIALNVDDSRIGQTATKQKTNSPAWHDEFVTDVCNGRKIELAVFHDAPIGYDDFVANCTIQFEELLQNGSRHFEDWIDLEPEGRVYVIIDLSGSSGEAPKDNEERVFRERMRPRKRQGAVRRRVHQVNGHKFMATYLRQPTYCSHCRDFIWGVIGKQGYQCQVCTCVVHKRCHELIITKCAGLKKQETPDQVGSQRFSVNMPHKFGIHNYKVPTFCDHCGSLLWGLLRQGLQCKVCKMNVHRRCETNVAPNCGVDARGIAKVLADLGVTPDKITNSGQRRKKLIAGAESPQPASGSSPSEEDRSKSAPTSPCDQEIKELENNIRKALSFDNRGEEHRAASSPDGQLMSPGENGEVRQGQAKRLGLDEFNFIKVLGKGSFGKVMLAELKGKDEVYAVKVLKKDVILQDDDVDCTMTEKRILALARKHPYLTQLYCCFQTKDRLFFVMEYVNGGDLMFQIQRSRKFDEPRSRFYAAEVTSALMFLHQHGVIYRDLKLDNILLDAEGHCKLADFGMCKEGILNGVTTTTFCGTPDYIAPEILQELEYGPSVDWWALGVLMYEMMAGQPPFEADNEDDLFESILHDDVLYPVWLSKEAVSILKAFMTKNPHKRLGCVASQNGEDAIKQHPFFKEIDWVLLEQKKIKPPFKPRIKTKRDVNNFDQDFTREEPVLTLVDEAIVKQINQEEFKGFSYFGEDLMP


Tests used:
[1] = molecular target: T1, PKC-ζ (endogenous, human cell extracts); experiment: Western-blot competition on cell extracts against the anti-PKC-ζ primary antibody; band densitometry
Protocol: (§1) Binding efficiency and specificity of the peptides PRE 2, 3, 4, 5, 6, 7, 8, 9, 10, 11, 12 and 13 (see Table 3) was also tested using cytoplasmic extracts from different cell lines expressing appropriate PKC isoforms as described for Example 1. Briefly, the protein cytoplasmic extracts were separated by electrophoresis and transferred onto nitrocellulose membranes by standard Western blotting procedures. The bands on the Western blots were detected with matching primary antibodies and alkaline phosphatase conjugated secondary antibody. The bands were then scanned and the relative density measurements obtained.
(§2) This procedure to assess the binding characteristics of the PREs is based on competition binding of the PRE with the primary anti-isoform PKC specific antibodies. The lower the measured band density, the greater the binding of the PRE to the PKC isoform. The PREs were added at 10 and 20 times (10×, 20×) the primary antibody concentration, according to classical competition between antigenic peptide and primary antibody. The following cell lines (obtained from the ATCC) were used: H661—NCI human lung carcinoma NSCLC; MDAMB231—human highly invasive breast cancer cell line from pleural effusion; LS180—human colon adenocarcinoma; LnCAP—human prostate adenocarcinoma; CCD16Lu—human lung fibroblasts; Du145—human prostate carcinoma brain metastasis, and T24—human bladder carcinoma.

[2] = molecular target: T2, PKC-ι (endogenous, human cell extracts); experiment: Western-blot competition on cell extracts against the anti-PKC-ι primary antibody; peptide at 10X and 20X the antibody concentration; band densitometry (lower band = peptide bound)
Protocol: as §1, §2

[3] = molecular target: T3, PKC-ε (endogenous, human cell extracts); experiment: Protocol B blot competition, IMR-32 extract, competitor anti-PKC-ε Ab, Band 2; PRE 50 µg
Protocol: The ability of the peptides PRE 2 and PRE 3 (see Table 3) to interfere with the binding of a PKC-α-specific polyclonal antibody (Santa Cruz Biotechnology, Inc.) to PKC-α was determined using a modified version of the protocol outlined above in which the test peptide was added directly to the cell extract prior to electrophoresis at a concentration of either 5× or 15× the concentration of the protein applied to each well of the gel for the Western blots (20 μg).
Peptides PRE 2, PRE 3 and PRE 4 (see Table 3) were tested for their ability to interfere with the binding of isoform-specific polyclonal antibodies (Santa Cruz Biotechnology, Inc.) to PKC-ε using the general protocol described in Example 3. Two bands, representing alternate splicing variants of PKC-ε, were identified on the Western blot using this anti-PKC-ε antibody.

binding result [2]	band intensity [3]	inhibition (%) [3] [%]	relative intensity (%) [3] [%]	Binder	binding result [1]
–	–	–	–	Ac-RDAQNLI-NH2 (Synthetic peptide; also called peptide PRE 13; Ac-RDAQNLI-NH2) [PRE 13]	no binding (tested: 20X the primary antibody concentration)
–	–	–	–	Ac-KDANQLIGISI-NH2 (Synthetic peptide; also called peptide PRE 6) [PRE 6]	no binding (tested: 20X the primary antibody concentration)
binds	0	100	0	Ac-KDAQNLIGISI-NH2 (Synthetic peptide; also called peptide PRE 4) [PRE 4]	–
binds	0	100	0	Ac-AKGIQEVKGGDAQNLIGISI-NH2 (Synthetic peptide; also called peptide PRE 3) [PRE 3]	–
